In the supplement of paper PMC9732359 one finds protein stability index data, which are given here for 25 sequences.

± gives the uncertainty stated by the source.

The data set in a line: protein stability index of a GFP-peptide fusion (yeast GPS) (PSI 1-4); higher = more stable; sorted into four equal gates, so the index is relative within each strain. The method, boiled down:
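Tiled 17-residue yeast protein peptides were fused downstream of GFP in a plasmid that also expresses Cherry, and the pooled library was carried in yeast. Mid-log cultures in leucine-free medium were sorted into four equal gates by GFP/Cherry fluorescence ratio, and plasmids from each gate were PCR-amplified and Illumina-sequenced, with reads assigned to strains by barcodes. The protein stability index for each peptide was each gate's read frequency times its gate number, summed.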

In the case of DIGSDPTLPRSDRECPK [RPB9], the protein stability index is, setting by setting: (doa10∆) 2.7 ± 0.069; (pdr5∆) 2.94 ± 0.078; (san1∆) 2.85 ± 0.076; (ubr1∆) 3.14 ± 0.082.

As to DILLCYQKLFSQFINDH [SRB8], the protein stability index reads like this: (doa10∆) 2.37 ± 0.034; (pdr5∆) 2.64 ± 0.037; (san1∆) 2.64 ± 0.042; (ubr1∆) 1.84 ± 0.034.

On to DILLNERVWNICLYSSF [AAR2], for which the protein stability index by setting is: (doa10∆) 1.91 ± 0.066; (pdr5∆) 1.68 ± 0.064; (san1∆) 1.55 ± 0.14; (ubr1∆) 1.84 ± 0.04.

DINVESLTQSVCDLALR [PUP2] displayed a protein stability index (doa10∆) of 1.52 ± 0.1, a protein stability index (pdr5∆) of 1.91 ± 0.067, a protein stability index (san1∆) of 1.67 ± 0.18 and a protein stability index (ubr1∆) of 1.93 ± 0.037.

Regarding DIPLAKALDNACGAFIN [CDC53], the protein stability index runs as follows: (doa10∆) 2.63 ± 0.091; (pdr5∆) 3.1 ± 0.067; (san1∆) 2.8 ± 0.078; (ubr1∆) 2.87 ± 0.072.

For DITGDIRNEGSDAEEEE [ISW2], the protein stability index runs as follows: (doa10∆) 2.83 ± 0.16; (pdr5∆) 3.1 ± 0.1; (san1∆) 3.05 ± 0.089; (ubr1∆) 2.91 ± 0.068.

As to DITVHGEQIIVHPVNER [RRP45], the protein stability index reads like this: (doa10∆) 2.23 ± 0.078; (pdr5∆) 2.15 ± 0.1; (san1∆) 1.82 ± 0.14; (ubr1∆) 1.9 ± 0.083.

For the sequence DKDNPVDSRNETDHKTN [SRB4], the protein stability index was determined as 3.38 ± 0.14 (doa10∆), 2.85 ± 0.15 (pdr5∆), 2.88 ± 0.086 (san1∆) and 3.3 ± 0.18 (ubr1∆).

DKFPYKKLELPKYIDEL [SWP82]: the protein stability index amounted to 2.73 ± 0.074 (doa10∆), 2 ± 0.058 (pdr5∆), 2.56 ± 0.064 (san1∆) and 2.83 ± 0.08 (ubr1∆).

Take DKFRKACSSSGRETILS [SIR3]: the protein stability index worked out at 1.94 ± 0.042 (doa10∆), 2.08 ± 0.042 (pdr5∆), 1.83 ± 0.073 (san1∆) and 2.64 ± 0.046 (ubr1∆).

As for DKHLYHVLYKESKGNAF [RPL19A], the protein stability index turned out to be 3.56 ± 0.16 (doa10∆), 3.39 ± 0.089 (pdr5∆), 2.96 ± 0.11 (san1∆) and 2.77 ± 0.084 (ubr1∆).

Take DKIHARARGPMQVLTRQ [RPB2]: the protein stability index is 3.16 ± 0.13 (doa10∆), 3.22 ± 0.12 (pdr5∆), 2.97 ± 0.09 (san1∆) and 3.21 ± 0.19 (ubr1∆).

With DKINQLSVVKYLLASLK [RPN9], the protein stability index (doa10∆) was found to be 2.02 ± 0.16 and the protein stability index (pdr5∆) turned out to be 2.15 ± 0.2.

On to DKKHFNNKNKRVTGAGG [RPC53], for which the protein stability index turned out to be 3.15 ± 0.24 (doa10∆), 2.53 ± 0.17 (pdr5∆), 3.16 ± 0.27 (san1∆) and 3.31 ± 0.075 (ubr1∆).

Sequence DKKKGQNVTSETHSKKR [ITC1] registered a protein stability index (doa10∆) of 3.1 ± 0.087, a protein stability index (pdr5∆) of 3.12 ± 0.076, a protein stability index (san1∆) of 3.16 ± 0.061 and a protein stability index (ubr1∆) of 3.04 ± 0.039.

In the case of DKKVTLITSEMFDAFVS [SIN4], the protein stability index (doa10∆) was found to be 1.56 ± 0.059, the protein stability index (pdr5∆) is 1.46 ± 0.049, the protein stability index (san1∆) came to 1.36 ± 0.098 and the protein stability index (ubr1∆) amounted to 1.28 ± 0.042.

As to DKLSGCYAPRPSAGPHK [RPS4A], the protein stability index stood at 2.2 ± 0.065 (doa10∆), 1.96 ± 0.063 (pdr5∆), 1.76 ± 0.099 (san1∆) and 1.64 ± 0.041 (ubr1∆).

As for DKLTSIQDTLRTGSQSP [MED7], the protein stability index came to 2.7 ± 0.042 (doa10∆), 2.82 ± 0.045 (pdr5∆), 2.69 ± 0.032 (san1∆) and 2.89 ± 0.033 (ubr1∆).

For DKPYLLRIVTHLAICLD [YDL116W/NUP84], the protein stability index reads like this: (doa10∆) 1.33 ± 0.078; (pdr5∆) 1.28 ± 0.08; (san1∆) 1.32 ± 0.13; (ubr1∆) 1.58 ± 0.058.

Turning to DKQYRTAVATLLKELSK [SMC3], the protein stability index is 2.49 ± 0.082 (doa10∆), 2.13 ± 0.084 (pdr5∆), 3.06 ± 0.061 (san1∆) and 2.72 ± 0.071 (ubr1∆).

DKRFSGSLKLPNCPRPN [RPL1A]: the protein stability index stood at 2.77 ± 0.073 (doa10∆), 3.05 ± 0.052 (pdr5∆), 2.94 ± 0.051 (san1∆) and 2.6 ± 0.046 (ubr1∆).

On to DLIADTITNSSSSSDII [YML103C/NUP188], for which the protein stability index (doa10∆) stood at 2.89 ± 0.077, the protein stability index (pdr5∆) is 2.46 ± 0.046, the protein stability index (san1∆) was found to be 2.63 ± 0.04 and the protein stability index (ubr1∆) was determined as 2.56 ± 0.044.

Turning to DLIETSFTCFAQFVSNK [NUT1], the protein stability index is 2.64 ± 0.093 (doa10∆), 2.01 ± 0.075 (pdr5∆), 1.92 ± 0.11 (san1∆) and 2.77 ± 0.076 (ubr1∆).

For DLKDILEKVVPLINVVV [BRR2], the protein stability index reads like this: (doa10∆) 2.22 ± 0.12; (pdr5∆) 1.91 ± 0.077; (san1∆) 2.37 ± 0.15; (ubr1∆) 2.51 ± 0.065.

In turn, DLLPNSFAKLVPCEGKD [SMC2] came in with a protein stability index (doa10∆) of 2.2 ± 0.04, a protein stability index (pdr5∆) of 2.73 ± 0.038, a protein stability index (san1∆) of 2.46 ± 0.053 and a protein stability index (ubr1∆) of 2.45 ± 0.039.
